In PMC2172734:

Molecular target: Abi1, endogenous in mouse fibroblasts (mouse (endogenous in MEFs)) (UniProt Q8CBW3)
Assay: co-IP

Sequence of UniProt Q8CBW3 (Q8CBW3 whole entry): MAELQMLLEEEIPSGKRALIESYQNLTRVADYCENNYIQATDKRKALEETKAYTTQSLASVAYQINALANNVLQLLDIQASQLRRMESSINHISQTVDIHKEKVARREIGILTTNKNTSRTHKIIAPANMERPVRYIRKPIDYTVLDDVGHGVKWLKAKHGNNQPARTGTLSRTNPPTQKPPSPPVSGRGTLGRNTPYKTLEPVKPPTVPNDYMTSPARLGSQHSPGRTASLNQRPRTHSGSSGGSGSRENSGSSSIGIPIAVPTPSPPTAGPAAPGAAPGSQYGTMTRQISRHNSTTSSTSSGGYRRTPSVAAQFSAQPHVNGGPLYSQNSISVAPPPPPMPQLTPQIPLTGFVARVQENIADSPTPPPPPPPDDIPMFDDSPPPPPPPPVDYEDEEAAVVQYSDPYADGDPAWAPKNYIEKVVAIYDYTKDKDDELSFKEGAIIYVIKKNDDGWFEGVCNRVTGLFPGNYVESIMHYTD

p85 (regulatory subunit of class I PI3K), endogenous in mouse fibroblasts (from UniProt P26450 1-724) (natural protein)
percent of total p85 associated with Abi1 immunoprecipitates: 1%
